Data reported in article PMC3728543, “Structure-Based Mechanism for Early PLP-Mediated Steps of Rabbit Cytosolic Serine Hydroxymethyltransferase Reaction” (BioMed Research International, 2013).
Positions count from the first letter of the chain named. Names and notes keep the numbering of the source.

B1: rabbit cytosolic serine hydroxymethyltransferase, wild type (enzyme, UniProt P07511 1-484, looked up)
chain: MATAVNGAPRDAALWSSHEQMLAQPLKDSDAEVYDIIKKESNRQRVGLELIASENFASRAVLEALGSCLNNKYSEGYPGQRYYGGTEHIDELETLCQKRALQAYGLDPQCWGVNVQPYSGSPANFAVYTALVEPHGRIMGLDLPDGGHLTHGFMTDKKKISATSIFFESMAYKVNPDTGYIDYDRLEENARLFHPKLIIAGTSCYSRNLDYGRLRKIADENGAYLMADMAHISGLVVAGVVPSPFEHCHVVTTTTHKTLRGCRAGMIFYRRGVRSVDPKTGKEILYNLESLINSAVFPGLQGGPHNHAIAGVAVALKQAMTPEFKEYQRQVVANCRALSAALVELGYKIVTGGSDNHLILVDLRSKGTDGGRAEKVLEACSIACNKNTCPGDKSALRPSGLRLGTPALTSRGLLEKDFQKVAHFIHRGIELTVQIQDDTGPRATLKEFKEKLAGDEKHQRAVRALRQEVESFAALFPLPGLPGF
modifications: pyridoxal 5'-phosphate bound as internal aldimine to the epsilon-amino group of Lys257
notes: rabbit cytosolic serine hydroxymethyltransferase (rcSHMT, EC 2.1.2.1); cDNA in the pET22b vector; the wild type probably came the same way; also called rcSHMT; wild type rcSHMT
B2: rabbit cytosolic serine hydroxymethyltransferase T254A mutant (enzyme, UniProt P07511 1-484, looked up)
chain: B1 chain with T254A
modifications: pyridoxal 5'-phosphate bound to Lys257 (internal aldimine; gem-diamine with glycine or L-serine)
notes: rabbit cytosolic serine hydroxymethyltransferase (rcSHMT) with T254A; cDNA in the pET22b vector; numbering is that for rcSHMT; also called T254A rcSHMT
B3: rabbit cytosolic serine hydroxymethyltransferase T254C mutant (enzyme, UniProt P07511 1-484, looked up)
chain: B1 chain with T254C
modifications: pyridoxal 5'-phosphate bound to Lys257 (internal aldimine; gem-diamine with glycine or L-serine)
notes: rabbit cytosolic serine hydroxymethyltransferase (rcSHMT) with T254C; cDNA in the pET22b vector; numbering is that for rcSHMT; also called T254C rcSHMT

Target: the molecule itself
Assay: crystal structure; crystals from 2-3% PEG4000, 20 mM K2HPO4/KH2PO4, 50 mM potassium MES or sodium HEPES pH 7.0, room temperature, protein 50 mg/mL; unliganded or with 60 mM glycine or L-serine; space group P41 with a tetramer per asymmetric unit (T254C-glycine: P41212, a dimer per asymmetric unit)

Stoichiometry N, 4:
B1
B2
B3
